This is an account of results in the Human Domainome abundance scans (Beltran et al. 2025).

± gives the uncertainty stated by the source.

The chains are these.
B1: CD2-associated protein, residues 1 to 59; numbered along this chain, Q9Y5K6 (parent)
chain: MVDYIVEYDYDAVHDDELTIRVGEIIRNVKKLQEEGWLEGELNGRRGMFPDNFVKEIKR

Variants of B1 are the subject of the data set. Nature of the data set: abundance fitness (aPCA) (normalised: wild type 0, dead -1); higher = more abundant; growth selection in yeast, the domain comes from the species named. The settings on record: Homo sapiens.
In the case of MVDYIVEYDYDAVHDDELTIRVGEIIRNVKKLQLEGWLEGELNGRRGMFPDNFVKEIKR, the abundance fitness came to 0.004 ± 0.072.

Turning to MVDYIVEYDYDAVHDDELTIRVGEIIINVKKLQEEGWLEGELNGRRGMFPDNFVKEIKR, the abundance fitness was -0.155 ± 0.066.

For the variant MVDYIVEYDYDAVHDDELTIRVGEIIFNVKKLQEEGWLEGELNGRRGMFPDNFVKEIKR, the abundance fitness was -0.195 ± 0.057. Take MVDYIVEYDYDAVHDDELTIRVGEIIGNVKKLQEEGWLEGELNGRRGMFPDNFVKEIKR: the abundance fitness was -0.148 ± 0.092. For MVDYIVEYDYDAVHDDELTIRVGEIICNVKKLQEEGWLEGELNGRRGMFPDNFVKEIKR the value was -0.038 ± 0.065; for MVDYIVEYDYDAVHDDELTIHVGEIIRNVKKLQEEGWLEGELNGRRGMFPDNFVKEIKR, -0.161 ± 0.15; for MVDYIFEYDYDAVHDDELTIRVGEIIRNVKKLQEEGWLEGELNGRRGMFPDNFVKEIKR, -0.483 ± 0.13. For MVDYIVEYDYDAVHDDELTIRVGEIIRNVKKLQEEGWLEGELNGRRGMFPDNFVKEIKA the value was -0.303 ± 0.22; for MVDYIVEYDYDAVHDDELTIRVGEIIRNVKKLQEEGWLEGELNGRRGMFGDNFVKEIKR, -0.322 ± 0.12.

Regarding MVDYIVEYDYDAVHDDELTIRVGEIIRNVKKLQEEGWLEGELNGRRGMFRDNFVKEIKR, the abundance fitness stood at 0.115 ± 0.15. For MVDYIVEYDYDAVHDDELTIRVGEIIRNVKKLQEEGWLEGELNGRRGMFSDNFVKEIKR the value was -0.329 ± 0.11; for MVDYIVEYDYDAVVDDELTIRVGEIIRNVKKLQEEGWLEGELNGRRGMFPDNFVKEIKR, -0.186 ± 0.092. MVDYIVEPDYDAVHDDELTIRVGEIIRNVKKLQEEGWLEGELNGRRGMFPDNFVKEIKR: the abundance fitness is -0.918 ± 0.34. For MVDYIVESDYDAVHDDELTIRVGEIIRNVKKLQEEGWLEGELNGRRGMFPDNFVKEIKR the value was 0.013 ± 0.078; for MVDYIVEYDYDAVHDDELTIRVGEIIRNVKKLYEEGWLEGELNGRRGMFPDNFVKEIKR, -0.242 ± 0.081; for MVDYIVEYDYDAVHDDELTIRVGEIIRNVKKLQEEGWLEGELNGRCGMFPDNFVKEIKR, -0.363 ± 0.2. The figure for MVDYIVEYDYDAVHDDELTIRVGEIIRNVKKLQEEGWLEGELNGRLGMFPDNFVKEIKR is -0.245 ± 0.12; for MVDYIVEYEYDAVHDDELTIRVGEIIRNVKKLQEEGWLEGELNGRRGMFPDNFVKEIKR it is -0.346 ± 0.12. The figure for MVDYIVEYTYDAVHDDELTIRVGEIIRNVKKLQEEGWLEGELNGRRGMFPDNFVKEIKR is -0.725 ± 0.21; for MVDYIVEYSYDAVHDDELTIRVGEIIRNVKKLQEEGWLEGELNGRRGMFPDNFVKEIKR it is -0.172 ± 0.13; for MVDYIVEYDYDAVHDDELTIRVGEIIRNVKKLQECGWLEGELNGRRGMFPDNFVKEIKR it is -0.156 ± 0.093. As to MVDYIVEYDYDAVHDDELTIRVGEIIRNVKKLQELGWLEGELNGRRGMFPDNFVKEIKR, the abundance fitness was -0.205 ± 0.062. For MVDYIVEYDYDAVHDDELTIRIGEIIRNVKKLQEEGWLEGELNGRRGMFPDNFVKEIKR, the abundance fitness is -0.273 ± 0.15. Regarding MVDYIVEYDYDAVHDDELTIRMGEIIRNVKKLQEEGWLEGELNGRRGMFPDNFVKEIKR, the abundance fitness is -0.52 ± 0.2.

MVDYIVEYDYDAVHDDELTIRVGEIIRNVKKLQEEGWLEGELNGRRGMFPDNFVKEIAR: the abundance fitness is -0.021 ± 0.27. Take MVDYIVEYDYDAVHDDELTIRVGEIIRNVKKLQEEGWLEAELNGRRGMFPDNFVKEIKR: the abundance fitness is -0.999 ± 0.4. As for MVDYIVEYDYDAVHDDELTIRVGEIIRNVKKLQEEGWLHGELNGRRGMFPDNFVKEIKR, the abundance fitness was -0.202 ± 0.14. Turning to MVDYIVEYDYDAVHDDELTIRVGEIIRNVKKLQEEGWLCGELNGRRGMFPDNFVKEIKR, the abundance fitness was 0 ± 0.21. For MVDYIVEYDYDAVHDDELTIRVGEIIRNVKKLQEEGWLEGELGGRRGMFPDNFVKEIKR, the abundance fitness is -0.057 ± 0.15.

For the variant MVDYIVEYDYDAVHDDELTIRVGEIIRNVKKLQEEGWLEGELHGRRGMFPDNFVKEIKR, the abundance fitness was found to be 0.145 ± 0.15. The figure for MVDYIVEYDYDAVHDDELTIRVMEIIRNVKKLQEEGWLEGELNGRRGMFPDNFVKEIKR is -0.918 ± 0.34. The figure for MVDYIVEYDYDAVHDDELTIRVWEIIRNVKKLQEEGWLEGELNGRRGMFPDNFVKEIKR is -0.955 ± 0.33; for MVDYIVEYDYDAVHDDELTIRVGEIIRNVRKLQEEGWLEGELNGRRGMFPDNFVKEIKR it is -0.071 ± 0.068; for MVDYIVEYDYDAVHDDELTIRVGEIIRNVQKLQEEGWLEGELNGRRGMFPDNFVKEIKR it is -0.31 ± 0.19. For the variant MVDYIVEYDYDAVHDDELTIRVGEIIRNVKKLQEEGWLEGELNGRRGMFPDCFVKEIKR, the abundance fitness is -0.041 ± 0.17. The figure for MVDYIVEYDYDAVHDDELTIRVGEWIRNVKKLQEEGWLEGELNGRRGMFPDNFVKEIKR is -0.519 ± 0.12; for MVDYIVEYDYDAVHDDELTIRVGEVIRNVKKLQEEGWLEGELNGRRGMFPDNFVKEIKR it is -0.088 ± 0.13; for MVDYIVEYDYDHVHDDELTIRVGEIIRNVKKLQEEGWLEGELNGRRGMFPDNFVKEIKR it is -0.924 ± 0.43. Take MVDYIVEYDYDAVHDDELTIRVGEIIRQVKKLQEEGWLEGELNGRRGMFPDNFVKEIKR: the abundance fitness is -0.15 ± 0.12.

With KVDYIVEYDYDAVHDDELTIRVGEIIRNVKKLQEEGWLEGELNGRRGMFPDNFVKEIKR, the abundance fitness was 0.142 ± 0.12. As to MVDYRVEYDYDAVHDDELTIRVGEIIRNVKKLQEEGWLEGELNGRRGMFPDNFVKEIKR, the abundance fitness was -0.128 ± 0.12. For MVDYCVEYDYDAVHDDELTIRVGEIIRNVKKLQEEGWLEGELNGRRGMFPDNFVKEIKR the value was -0.343 ± 0.21; for MVDYIVEYDYDAVHDDELTLRVGEIIRNVKKLQEEGWLEGELNGRRGMFPDNFVKEIKR, -0.014 ± 0.057; for MVDYIVEYDYDAVHDDELTIRVGEIIRNAKKLQEEGWLEGELNGRRGMFPDNFVKEIKR, -0.069 ± 0.1. As for MVDYIVEYDYDAVHDDELTIRVGEIIRNVKKLQEEGWEEGELNGRRGMFPDNFVKEIKR, the abundance fitness is -0.867 ± 0.42.
